Measurements taken from FireProtDB (doi:10.1016/j.ijbiomac.2020.03.166).
Values joined by “and” are separate entries in the source; they are usually repeats but may differ in a detail not shown here. Equal entries are not always repeated.

Conditions: Leishmania major, pH 7.5, potassium phosphate, NaCl, transition: 2, whole UniProt chain shown
[1] = GdnHCl, fluorescence emission maxima
[2] = Urea, fluorescence emission maxima

B1: Peptidyl-prolyl cis-trans isomerase wild type, Q4QII4 (protein)
chain: MPTSSWRAEHLLIKHSGSRNPVSRRTGQPTTISYEEAVTELQKWCQSINDGKVTFEEAARQRSDCSSYARGGDLGVFGPGEMMKPFEDATKSLEVGQVSGIVVTDSGVHIIKRIA
denaturant m value (GdnHCl, CD): 3.32 kcal/mol/M | denaturant midpoint (higher = more stable) (GdnHCl, CD): 0.98 M | unfolding free energy (GdnHCl, CD): 3.27 kcal/mol | denaturant m value (GdnHCl, anisotropy): 3.87 kcal/mol/M | denaturant midpoint (higher = more stable) (GdnHCl, anisotropy): 1.16 M | unfolding free energy (GdnHCl, anisotropy): 4.51 kcal/mol | denaturant m value [1]: 4.3 kcal/mol/M | denaturant midpoint (higher = more stable) [1]: 1.1 M | unfolding free energy [1]: 4.74 kcal/mol | denaturant m value (GdnHCl, fluorescence intensity): 4.61 kcal/mol/M | denaturant midpoint (higher = more stable) (GdnHCl, fluorescence intensity): 0.97 M | unfolding free energy (GdnHCl, fluorescence intensity): 4.48 kcal/mol | unfolding enthalpy (calorimetric) (Thermal, DSC): 36.6 kcal/mol and 55.1 kcal/mol | denaturant m value (Urea, CD): 1.38 kcal/mol/M | denaturant midpoint (higher = more stable) (Urea, CD): 4.12 M | unfolding free energy (Urea, CD): 5.69 kcal/mol | denaturant m value (Urea, anisotropy): 1.2 kcal/mol/M | denaturant midpoint (higher = more stable) (Urea, anisotropy): 4.15 M | unfolding free energy (Urea, anisotropy): 4.99 kcal/mol | denaturant m value [2]: 1.28 kcal/mol/M | denaturant midpoint (higher = more stable) [2]: 4.78 M | unfolding free energy [2]: 5.12 kcal/mol | denaturant m value (Urea, fluorescence intensity): 1.39 kcal/mol/M | denaturant midpoint (higher = more stable) (Urea, fluorescence intensity): 3.53 M | unfolding free energy (Urea, fluorescence intensity): 4.91 kcal/mol
